Legend:
Assay type in all cases: biochemical, Eucalyptus camaldulensis
purified protein [1] = substrate: NC(=O)C1=CN([C@@H]2O[C@H](COP(=O)(O)OP(=O)(O)OC[C@H]3O[C@@H](n4cnc5c(N)ncnc54)[C@H](O)[C@@H]3O)[C@@H](O)[C@H]2O)C=CC1; assay: purified protein; details: quinate formation from 3-DHQ, pH 7.5, 30 °C, varied: cofactor
purified protein [2] = substrate: NC(=O)c1ccc[n+]([C@@H]2O[C@H](COP(=O)(O)OP(=O)(O)OC[C@H]3O[C@@H](n4cnc5c(N)ncnc54)[C@H](O)[C@@H]3O)[C@@H](O)[C@H]2O)c1; assay: purified protein; details: quinate oxidation, pH 9, 30 °C, varied: cofactor
purified protein [3] = substrate: O=C(O)[C@]1(O)C[C@@H](O)[C@@H](O)[C@H](O)C1; assay: purified protein; details: quinate oxidation with NAD+, pH 9, 30 °C
purified protein [4] = substrate: O=C1C[C@@](O)(C(=O)O)C[C@@H](O)[C@@H]1O; assay: purified protein; details: quinate formation with NADH, pH 7.5, 30 °C
purified protein [5] = substrate: NC(=O)C1=CN([C@@H]2O[C@H](COP(=O)(O)OP(=O)(O)OC[C@H]3O[C@@H](n4cnc5c(N)ncnc54)[C@H](OP(=O)(O)O)[C@@H]3O)[C@@H](O)[C@H]2O)C=CC1; assay: purified protein; details: shikimate formation from 3-DHS, varied: cofactor
purified protein [6] = substrate: NC(=O)c1ccc[n+]([C@@H]2O[C@H](COP(=O)(O)OP(=O)(O)OC[C@H]3O[C@@H](n4cnc5c(N)ncnc54)[C@H](OP(=O)(O)O)[C@@H]3O)[C@@H](O)[C@H]2O)c1; assay: purified protein; details: shikimate oxidation, pH 9, 30 °C, varied: cofactor
purified protein [7] = substrate: O=C(O)C1=CC(=O)[C@@H](O)[C@H](O)C1; assay: purified protein; details: shikimate formation with NADPH
purified protein [8] = substrate: O=C(O)C1=C[C@@H](O)[C@@H](O)[C@H](O)C1; assay: purified protein; details: shikimate oxidation with NADP+, pH 9, 30 °C
[9] = substrate: O=C1C[C@@](O)(C(=O)O)C[C@@H](O)[C@@H]1O; assay: HPLC of 3-DHS formed, Michaelis-Menten fit; details: DQD activity, no cofactor, pH 7, 30 °C
Text: HPLC of 3-DHS formed, Michaelis-Menten fit on EcDQD/SDH1

[10] = substrate: O=C1C[C@@](O)(C(=O)O)C[C@@H](O)[C@@H]1O; assay: HPLC of 3-DHS formed, Michaelis-Menten fit; details: DQD activity, no cofactor, pH 7, 30 °C; remark: listed apart in the source
Text: HPLC of 3-DHS formed, Michaelis-Menten fit on EcDQD/SDH3

[11] = substrate: O=C1C[C@@](O)(C(=O)O)C[C@@H](O)[C@@H]1O; assay: HPLC of 3-DHS formed, Michaelis-Menten fit; details: DQD activity, no cofactor, pH 7, 30 °C; remark: listed apart in the source
Text: HPLC of 3-DHS formed, Michaelis-Menten fit on EcDQD/SDH2

| Protein | Km (purified protein [5]; pH 6.5, 30 °C) [µM] | Vmax (purified protein [5]; pH 6.5, 30 °C) [µmol/min/mg] | kcat (purified protein [5]; pH 6.5, 30 °C) [s⁻¹] | kcat/Km (purified protein [5]; pH 6.5, 30 °C) [M⁻¹ s⁻¹] | Km (purified protein [6]) [µM] | Vmax (purified protein [6]) [µmol/min/mg] | kcat (purified protein [6]) [s⁻¹] | kcat/Km (purified protein [6]) [M⁻¹ s⁻¹] | Km (purified protein [7]; pH 6.5, 30 °C) [µM] | Vmax (purified protein [7]; pH 6.5, 30 °C) [µmol/min/mg] | kcat (purified protein [7]; pH 6.5, 30 °C) [s⁻¹] | kcat/Km (purified protein [7]; pH 6.5, 30 °C) [M⁻¹ s⁻¹] | Km (purified protein [8]) [µM] | Vmax (purified protein [8]) [µmol/min/mg] | kcat (purified protein [8]) [s⁻¹] | kcat/Km (purified protein [8]) [M⁻¹ s⁻¹] | other results |
| --- | --- | --- | --- | --- | --- | --- | --- | --- | --- | --- | --- | --- | --- | --- | --- | --- | --- |
| EcDQD/SDH4a (EcQDHa) (Eucalyptus camaldulensis) (protein) GSLSLSSVGLTMVCAPVMGESVDQVVEEMHKAKAQGADVVEVRLDCIKQFQAHQDLEIILKSKPLPVIIVYRPKCEGGLYEGDETARLEALRSALKLGADYVDFELKVAAELMSKQNKLHCGGTKVIVSCFLDGVTPSKEELSNLATHMKATGADIIKIVTSASNITELAGLFHLLSYSQMPVVAYAVGERGLISQLLSPKFGSTLVYGSIEGMAVPGLPTLESLRKTYKVEHINSDTTVFGLISKPVGHSKGPILHNPTLRHMNFNGLYVPMFVDNLKEFFEVYSTPDFAGFSVGFPYKEAVIQFCDEVHPLAQTIGAVNTIVRRPSDGKLIGYNTDCEASVTAMEDALQECRCINGEKSLVSPLAGKEFVLVGAGGAGRALAFGAKTRGARIIIFDIDFERAKMLAHAVSGEARPFGDLPYFQPEKGSILANATPIGMHPNKDRIPVSEASLGVFQLVFDAVYTPRKTTLLKEAEAAGAITVSGVEMFLRQAIGQFNLFTGGEAPKEFMREIVLAKF | – | – | – | – | – | – | – | – | – | – | – | – | – | – | – | – | Km (purified protein [1]): 102 ± 9 µM; Vmax (purified protein [1]): 318 µmol/min/mg; kcat (purified protein [1]): 298 ± 8 s⁻¹; kcat/Km (purified protein [1]): 2.92e+06 M⁻¹ s⁻¹; Km (purified protein [2]): 53.7 ± 1.7 µM; Vmax (purified protein [2]): 148 µmol/min/mg; kcat (purified protein [2]): 139 ± 1 s⁻¹; kcat/Km (purified protein [2]): 2.59e+06 M⁻¹ s⁻¹; Km (purified protein [3]): 164 ± 10 µM; Vmax (purified protein [3]): 135 µmol/min/mg; kcat (purified protein [3]): 127 ± 2 s⁻¹; kcat/Km (purified protein [3]): 771000 M⁻¹ s⁻¹; Km (purified protein [4]): 1400 ± 120 µM; Vmax (purified protein [4]): 300 µmol/min/mg; kcat (purified protein [4]): 281 ± 7 s⁻¹; kcat/Km (purified protein [4]): 201000 M⁻¹ s⁻¹ |
| EcDQD/SDH1 (Eucalyptus camaldulensis) (protein, genome locus by order of listing EcC055014.20) ASTGNVLLATSSAPHEMESGAVRKNSTLICVPVMADSVEEMVIQLDKAKSSGADLVEIRVDSLKNLSPHEDLKTLIKASALPTLFTYRPKWEGGQYDGDDKPRLETLRLAMELGADYIDVELKVASEFNASIQGRKPEKCKVIVSSHNYENTPSAEDLSNLVARIQAAGADIVKIATTALDITDVERMFHITVHSQVSSVPVIGMVMGERGLISRVLCAKFGGFLTFGTLESGVVSAPGQPTIKDLLDLYNFRSIGPDTKVFGIIGKPVGHSKSPLLYNQAFKSAGFDGVFLHLLVDDVASFLQTYSSTDFAGFSCTIPHKEAAVKCCDEVDPVAKSIGAVNCIIRRQSDAKLFGYNTDYVGAISAIEDGLRGSQNGNSAGASPLNGKLFVVIGAGGAGKALGYGAKEKGARVVIANRTYDRARELAETIGGDALSLADLENFHPEDGMILANTTSIGMQPKVDETPIPKHALKHYSLVFDAVYTPKITRLLKEAEECGATIVSGLEMFIGQAYGQYERYTGLPAPKELFRKIMSKY | 49.5 ± 3.6 | 404 | 389 ± 9 | 7.86e+06 | 56.5 ± 2.3 | 822 ± 6 | 792 ± 6 | 1.4e+07 | 381 ± 34 | 318 | 307 ± 5 | 805000 | 32.6 ± 1.9 | 780 ± 6 | 755 ± 6 | 2.32e+07 | Km [9]: 449 ± 22 µM; Vmax [9]: 63 µmol/min/mg; kcat [9]: 60.4 ± 0.7 s⁻¹; kcat/Km [9]: 135000 M⁻¹ s⁻¹ |
| EcDQD/SDH3 (Eucalyptus camaldulensis) (protein, genome locus by order of listing EcC054875.120) GSVPFTTSDLQTSTSGFRSSPTLLCTPLMGTTVDQMLIEMRKAKEIGADLVEIRLDCLRNFNPHQDLQILIKQSPLPTLVTYRPVWEGGQYEGDESKRQDALRLAMQLGAHYIDVELEVAHDFNSSILGKKPDNFKIIVSSHNFHNTPSAEAIGNLVARIQATGADIAKIATTALDITDCARIFQITVHSQIPIIGIVMGERGLISRILSPKFGGYLTYGALEAGAISAPGQPTAKDLLDLYNFRLIRPDTKVYGIIGKPVGHSKSPLLFNASYKSVGLNAVYLHFLVDDVEKFFNTYSAVDFASGCSCTIPHKEAALKCMDEIDPIAKKIGAINNIVRRPDGTLTAFNTDYIGAISAIEDGLRGLNGVSSGASPLAGKLFVVLGAGGAGKSLAYGAAQKGARVVVANRTFERAKELADKVGGQAMTLAEVENFHPEEGMVLANTTSVGMKPKIDETPLAKHALKHYCLVFDAIYTPKDTRLLREARETGAVIVYGTEMLIRQGFEQYKNFTGLPAPEELFRTLMEKHA | 23.1 ± 1.4 | 77.4 | 74.1 ± 1.2 | 3.21e+06 | 41.5 ± 2.1 | 73.2 | 70.2 ± 0.6 | 1.69e+06 | 878 ± 106 | 60 | 57.6 ± 1.7 | 65600 | 3640 ± 360 | 84 | 80.7 ± 2.9 | 22200 | Km [10]: 882 ± 42 µM; Vmax [10]: 3.83 µmol/min/mg; kcat [10]: 3.67 ± 0.05 s⁻¹; kcat/Km [10]: 4160 M⁻¹ s⁻¹ |
| EcDQD/SDH2 (Eucalyptus camaldulensis) (protein, genome locus by order of listing EcC035206.10) TLSSIPLTAADLQIPAGGRRNSTLLCAPVMGESVDQMLGQIRAAKEQGADLVEVRLDFLKSFSPKQDLEILLKQSALPTLVTYRPKWEGGQYEGDDSQRLDALRLALELGADYVDVELQVAQEFFSSIQGKKPEKAKIIVSSHNYQNTPSSEELGNLVAKIQATGADIVKIATTALDISDCPRIFEVLAHSQVPTIAIAMGERGLISRILAAKFGGYLTFGAIEAGVVSAPGQPSIKDLLDLYNLRQLGPDTKVHGVIGKPIGHSKSPHLYNAAFKSVNFNGIYLPLLVDNVANFINAYSSPDFVGYSYTIPHKEDGLRCCDEVDPIAKAIGAISQMIRRPTDGKMIGYNVDYLGAIAAIEEALRASNGASPTTTSPLAGKLFVVIGAGGAGKALAYGAMEKGARVVVANRTYEKAKELASKVGGQAITLAELENFHPEDGMVLANTTSVGMKPNVDLTPLPKNALSRYCLVFDAIYTPKLTRLLREAQEVGAIPVYGTEMFINQAFVQFERFTGYPAPKQLIRDTLVKNS | – | – | – | – | 65.2 ± 2.7 | 141 | 135 ± 1 | 2.07e+06 | – | – | – | – | 2050 ± 200 | 153 | 146 ± 4 | 71300 | Km (purified protein [5]; pH 8.5, 30 °C): 4.38 ± 0.43 µM; Vmax (purified protein [5]; pH 8.5, 30 °C): 28.9 µmol/min/mg; kcat (purified protein [5]; pH 8.5, 30 °C): 27.6 ± 0.5 s⁻¹; kcat/Km (purified protein [5]; pH 8.5, 30 °C): 6.3e+06 M⁻¹ s⁻¹; Km (purified protein [7]; pH 8.5, 30 °C): 8830 ± 1210 µM; Vmax (purified protein [7]; pH 8.5, 30 °C): 49.3 µmol/min/mg; kcat (purified protein [7]; pH 8.5, 30 °C): 47 ± 3.3 s⁻¹; kcat/Km (purified protein [7]; pH 8.5, 30 °C): 5320 M⁻¹ s⁻¹; Km [11]: 322 ± 13 µM; Vmax [11]: 32.4 µmol/min/mg; kcat [11]: 30.9 ± 0.3 s⁻¹; kcat/Km [11]: 96200 M⁻¹ s⁻¹ |

From paper PMC7752791, “Dehydroquinate dehydratase/shikimate dehydrogenases involved in gallate biosynthesis of the aluminum-tolerant tree species Eucalyptus camaldulensis” (Planta, 2020)
